We go through 7 molecules from US20240150445A1.

Bounds are passed on as bounds.

Assay [1] has as its target Man9-V3 glycopeptide. Description: biolayer interferometry, biotinylated Man9-V3 on streptavidin sensors, antibody in solution, global fit to the bivalent avidity model. (In general: In BLI a coated tip is dipped into the sample, and binding shifts an interference pattern.)
In assay [2] the target is Man9-V3 glycopeptide. In words: biolayer interferometry, biotinylated peptide on streptavidin sensors.
Assay [3] addresses Man9-V3 glycopeptide. Description: biolayer interferometry, biotinylated Man9-V3 on streptavidin sensors, antibody in solution; inset curves (100, 50, 25 µg/mL) after subtraction of the palivizumab signal.

B1: DH270.3 (antibody, V domains shown)
VH: QVQLVQSGAEMKNPGASVKVSCAASGYTFTDFYIHWVRLAPGQGLEWMGWMNPKTGRTNNAQNFQGRVIMTRDTSIGTAYMELRRLTSDDTAVYYCVTGGWISPYYDSSYYPNFDHWGQGTLVTVSS
VL: QSALTQPASVSGSPGQSITISCTGTSYDVGKFDLVSWYQQHPGKAPKYMIYEVNKWPSGVSHRFSGSKSGNTASLTISGLQAEDEADYYCCSFGGSATVVCGGGTKVTVL
Turning to B1, in assay [1], the koff (commonly the rate constant with which the complex falls apart) was determined as 0.000778 s⁻¹ and the kon (as a rule, a measure of how fast the partners come together) stood at 4000 M⁻¹ s⁻¹.

B2: DH270.6 (antibody, V domains shown)
VH: QVQLVQSGAQMKNPGASVKVSCAPSGYTFTDFYIHWLRQAPGQGLQWMGWMNPQTGRTNTARNFQGRVIMTRDTSIGTAYMELRSLTSDDTAIYYCTTGGWISLYYDSSYYPNFDHWGQGTLLTVSS
VL: TSLLTQPASVSGSPGQSITISCTGTKYDVGSHDLVSWYQQYPGKVPKYMIYEVNKRPSGVSNRFSGSKSGNTASLTISGLRAEDEADYYCCSFGGSATVVCGGGTKVTVL
In assay [1], B2 gave a koff of 0.00037 s⁻¹ and a kon of 1970 M⁻¹ s⁻¹. Moreover, the Kd (as a rule, the equilibrium constant for the complex coming apart) in assay [2] is 188 nM.

B3: DH270.4 (antibody, V domains shown)
VH: EVQLVQSGAEMKNPGASVKVSCAASGYGFTDFYIHWVRLAPGHGLQWMGWMNPKTGRTNNAQDFQGRVILTRDTSIGTAYMELRRLTSDDTAVYYCVTGGWISPYYDSSYYPNFDHWGQGTLITVSS
VL: QSALTQPASVSGSPGQSITISCTGTSYDVAKFDLVSWFQQHPGKAPKYMIYEVNKWPSGVSHRFSGSKSGNTASLTISGLQAEDEADYYCCSFGGSATVVCGGGTKVTVL
In assay [1], B3 showed a koff of 0.00052 s⁻¹ and a kon of 1500 M⁻¹ s⁻¹.

B4: DH270.5 (antibody, V domains shown)
VH: QVQLVQSGAEVKNPGASVKVSCAPSGYTFTDFYIHWVRLAPGQGLEWLGWMNPKTGRTNQGQNFQGRVIMTRDTSIGTAYMELRSLTSDDTAVYYCVTGAWISDYYDSSYYPNFDHWGQGTLVTVSS
VL: LPVLTQPASVSGSPGQSITISCTGTIYDVGKFDLVSWYQHHPGKAPKYLIYEVKKWPSGVSHRFSGSKSGNTASLTISGLQVEDEADYYCCSFGGSAAVVCGGGTKVTVL
In the case of B4, in assay [1], the koff is 0.00091 s⁻¹ and the kon is 3300 M⁻¹ s⁻¹.

B5: DH270.IA4 (antibody, V domains shown)
VH: QVQLVQSGAEVKKPGASVKVSCKASGYTFTDYYIHWVRQAPGQGLEWMGWINPNTGRTNYAQKFQGRVTMTRDTSISTAYMELSRLRSDDTAVYYCARGGWIGLYYDSSGYPNFDYWGQGTLVTVSS
VL: QSALTQPASVSGSPGQSITISCTGTSYDVGSYNLVSWYQQHPGKAPKLMIYEVSKRPSGVSNRFSGSKSGNTASLTISGLQAEDEADYYCCSYAGSSTVIFGGGTKLTVL
In the case of B5, the Kd in assay [3] and in assay [2] was above 10000 nM in each case.

B6: DH270.1 (antibody, V domains shown)
VH: QVQLVQSGAEMKKPGASVKVSCKASGYTFTDYYIHWVRQAPGQGLEWMGWINPNTGRTNYAQKFQGRVIMTRDTSISTAYMELSRLTSDDTAVYYCATGGWIGLYYDSSGYPNFDYWGQGTLVTVSS
VL: QSALTQPASVSGSPGQSITISCTGTSYDVGSYNLVSWYQQHPGKAPKYMIYEVNKRPSGVSNRFSGSKSGNTASLTISGLQAEDEADYYCCSYAGSSTVIFGGGTKLTVL
On to B6, for which, in assay [1], the koff was 0.00051 s⁻¹ and the association rate constant (kon) is 1540 M⁻¹ s⁻¹. In addition, the dissociation constant Kd in assay [2] was 331 nM.

B7: DH270.2 (antibody, V domains shown)
VH: QVQLVQSGAEMKKPGASVRVSCKASGYTFTDYYIHWVRQAPGQGPEWMGWINPSTGRTNSPQKFQGRVIMTRDTSISTAYMDLNRLTSDDTAMYYCTTGGWIGLYSDTSGYPNFDYWGQGTLVTVSS
VL: QSALTQPASVSGSPGQSITISCTGTNYDVGSYNLVSWYQQHPGKVPKYIIYEVNKRPSGVSNRFSGSKSGNTASLTISGLQAEDEADYYCCSYAGSSIIFFGGGTKLTVI
In assay [1], B7 came in with a dissociation rate constant (koff) of 0.0081 s⁻¹ and an on-rate constant (kon) of 1710 M⁻¹ s⁻¹.
